Measured values published in paper PMC3634016 (PLoS ONE, 2013).

Target: T1, Wild type rat calmodulin (CaM) (rat, UniProt P0DP29 1-149)
T1 construct: calmodulin, rat, wild type; also called Ca^2+-CaM; calcium-calmodulin; source: expressed from pET9d (Novagen), purified (Phenyl Sepharose, gel filtration)
Assay: ITC; peptide titrated into Ca^2+-CaM alone; 25°C; 25 mM Tris-Cl pH 7.5, 75 mM NaCl, 0.5 mM CaCl2; one-set-of-sites model
Details: both partners purified

B1: mammalian NSCaTE_(Cav1.2) peptide (peptide)
peptide: SWQAAIDAARQAKLMGS
notes: 17 mer with the N-terminal NSCaTE motif of the mammalian L-type calcium channel Cav1.2; also called Cav1.2 NSCaTE; source: synthetic peptide (CanPeptide Inc, >95% purity)
- stoichiometry N: 2
